One test deals with HLA-A*26:03. Description: IEDB peptide-MHC binding, purified MHC/competitive/fluorescence; filed as Kd, often an IC50 or EC50 that approximates it; ≥ and ≤ were set here for values at or beyond the usual limits of such assays. The note with it: source organism: Human immunodeficiency virus 1.
In test [1] the target is HLA-A*03:01. The test is described as above. The note with it: source organism: Human immunodeficiency virus 1.
Test [2] deals with HLA-A*69:01. Described as above. The note with it: source organism: Human immunodeficiency virus 1.
In another test the target is HLA-A*02:03. The description is as above. The note with it: source organism: Human immunodeficiency virus 1.
Another test concerns the target HLA-A*68:02. Described as above. The note with it: source organism: Human immunodeficiency virus 1.
The target in a further test is HLA-A*30:01. The description is as above. The conditions noted are these: source organism: Human immunodeficiency virus 1.
Test [3] concerns the target HLA-A*02:01. The description is as above. The conditions noted are these: source organism: Human immunodeficiency virus 1.
The target in test [4] is HLA-A*11:01. The description is as above. The conditions noted are these: source organism: Human immunodeficiency virus 1.
The target of a further test is HLA-B*08:02. The description is as above. The note with it: source organism: Human immunodeficiency virus 1.
In a further test the target is HLA-A*02:06. Described as above. The note with it: source organism: Human immunodeficiency virus 1.
For test [5], the target named is HLA-A*31:01. The description is as above. The note with it: source organism: Human immunodeficiency virus 1.
Test [6] has as its target HLA-A*26:01. Described as above. The conditions noted are these: source organism: Human immunodeficiency virus 1.
Test [7] has as its target HLA-B*08:01. Described as above. The note with it: source organism: Human immunodeficiency virus 1.
In test [8] the target is HLA-A*03:01. Put plainly: IEDB peptide-MHC binding, purified MHC/direct/fluorescence; filed as Kd, often an IC50 or EC50 that approximates it; ≥ and ≤ were set here for values at or beyond the usual limits of such assays. The conditions noted are these: source organism: Bacillus licheniformis.
Test [9] concerns the target HLA-A*69:01. Described as above. The note with it: source organism: Bacillus licheniformis.
Another test concerns the target HLA-A*01:01. The test is described as above. The note with it: source organism: Bacillus licheniformis.
The next test addresses HLA-B*27:05. Described as above. The conditions noted are these: source organism: Bacillus licheniformis.
Another test deals with HLA-B*40:01. Described as above. The note with it: source organism: Bacillus licheniformis.
The target in a further test is HLA-B*15:01. The test is described as above. The note with it: source organism: Bacillus licheniformis.
The target of the next test is HLA-B*58:01. The description is as above. The note with it: source organism: Bacillus licheniformis.
The target of test [10] is HLA-A*02:01. The description is as above. The note with it: source organism: Bacillus licheniformis.
For test [11], the target named is HLA-A*11:01. The test is described as above. The note with it: source organism: Bacillus licheniformis.
The target of test [12] is HLA-A*31:01. The test is described as above. The note with it: source organism: Bacillus licheniformis.
Test [13] concerns the target HLA-A*26:01. Described as above. The conditions noted are these: source organism: Bacillus licheniformis.
For another test, the target named is HLA-B*07:02. The description is as above. The note with it: source organism: Bacillus licheniformis.
The target of test [14] is HLA-B*08:01. The description is as above. The conditions noted are these: source organism: Bacillus licheniformis.
In the next test the target is HLA-B*15:02. Description: IEDB peptide-MHC binding, purified MHC/competitive/fluorescence; filed as Kd, often an IC50 or EC50 that approximates it; ≥ and ≤ were set here for values at or beyond the usual limits of such assays. The conditions noted are these: source organism: Bacillus licheniformis.

Kd data for two sequences are collected here from the Immune Epitope Database (IEDB).

On to VLYCVHQRV, for which the Kd is at least 20 µM with HLA-A*26:03; at least 20 µM in the test with HLA-A*03:01 [1]; at least 20 µM with HLA-A*69:01 [2]; 0.0047 µM with HLA-A*02:03; 0.223 µM in the test with HLA-A*68:02; 1.86 µM with HLA-A*30:01. Further, the Kd with HLA-A*02:01 [3] is 0.0098 µM; with HLA-A*11:01 [4] it was 10.7 µM; with HLA-B*08:02, at least 20 µM; in the test with HLA-A*02:06, 0.0005 µM; with HLA-A*31:01 [5] it was 11.9 µM; in the test with HLA-A*26:01 [6] it was at least 20 µM. Moreover, the Kd with HLA-B*08:01 [7] is at least 20 µM.

With VQIPEKKCF, the Kd is at least 20 µM with HLA-A*03:01 [8]; at least 20 µM in the test with HLA-A*69:01 [9]; at least 20 µM with HLA-A*01:01; at least 20 µM in the test with HLA-B*27:05; at least 20 µM in the test with HLA-B*40:01; 0.453 µM with HLA-B*15:01. The Kd with HLA-B*58:01, with HLA-A*02:01 [10], in the test with HLA-A*11:01 [11], in the test with HLA-A*31:01 [12], in the test with HLA-A*26:01 [13] and with HLA-B*07:02 was at least 20 µM in each case. The Kd in the test with HLA-B*08:01 [14] and with HLA-B*15:02 was at least 20 µM in each case.

Usually Kd stands for the constant that tells how readily two partners part at equilibrium. High values mean weaker binding, low ones tighter binding.
